From paper PMC2926129 (Regulatory peptides, 2010)
Ends that are not written are not given here.

Biological target: T1, rabbit calcitonin receptor (rabbit, UniProt P79222 23-474)
T1 sequence (looked up): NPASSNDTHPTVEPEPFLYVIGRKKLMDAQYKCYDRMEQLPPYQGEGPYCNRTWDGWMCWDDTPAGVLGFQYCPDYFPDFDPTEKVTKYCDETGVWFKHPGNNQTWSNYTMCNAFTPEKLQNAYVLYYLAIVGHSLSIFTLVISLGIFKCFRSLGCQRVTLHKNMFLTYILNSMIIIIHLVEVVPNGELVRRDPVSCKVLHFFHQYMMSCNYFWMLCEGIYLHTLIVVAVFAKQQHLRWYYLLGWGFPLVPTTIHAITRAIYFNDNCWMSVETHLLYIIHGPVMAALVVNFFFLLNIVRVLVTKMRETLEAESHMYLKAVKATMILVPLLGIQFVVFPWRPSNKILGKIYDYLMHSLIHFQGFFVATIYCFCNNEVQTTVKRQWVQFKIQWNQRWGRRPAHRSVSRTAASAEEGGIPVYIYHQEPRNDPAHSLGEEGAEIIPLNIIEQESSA
Experiment: radioligand binding

CGNLSTCMLGTYTQDFNKFHTFPQTAIGVGAP (ligand, UniProt P01258 85-116, looked up, ends and bridges not checked; cysteine pairing not given here) [human calcitonin]
Ki: 610 pM
